Nine molecules from PMC5593919, “Functional characterization of Vip3Ab1 and Vip3Bc1: Two novel insecticidal proteins with differential activity against lepidopteran pests” (Scientific Reports, 2017) can be followed below.

Data set [1] deals with Vip3Ab1 after overnight processing with H. zea midgut enzymes (~20 kDa and ~65 kDa products together) (Bacillus thuringiensis). Briefly: SEC; purified Vip3 protein digested overnight with H. zea gut fluid (50 mM MOPS pH 10, 30 °C), stopped with protease inhibitors, then analytical SEC on TSKgel SuperSW3000 in 50 mM sodium phosphate pH 7.0 with 250 mM NaCl; size from retention time. Background: Size exclusion chromatography separates by hydrodynamic size, large species first.

For data set [2], the target named is C-terminal ~65 kDa domain of Vip3Ab1, expressed from Leu222 (Bacillus thuringiensis). In words: SEC; analytical SEC, TSKgel SuperSW3000, 50 mM sodium phosphate pH 7.0 with 250 mM NaCl, 75 µl/min, 3 µl at 150 µg/ml, fluorescence detection; size from retention time against molecular weight standards; proteins not digested.
Data set [3] has as its target Vip3Ab1 (Bacillus thuringiensis). Described as above.
Data set [4] addresses Vip3_BA chimera (N-terminal domain of Vip3Bc1 and C-terminal domain of Vip3Ab1) (Bacillus thuringiensis). The data set is described as above.
The target of data set [5] is Vip3_AB chimera (N-terminal domain of Vip3Ab1 and C-terminal domain of Vip3Bc1) (Bacillus thuringiensis). The description is as above.
The target in data set [6] is T1, ~65 kDa C-terminal product of Vip3Bc1 after gut enzyme processing (Bacillus thuringiensis, UniProt A0A290WPI2 214-803).
T1 construct: Vip3Bc1, GenBank MF543028, product from the cleavage 210NVTK/EVIE (processed at 214Glu); source: Vip3Bc1 from Pseudomonas fluorescens, purified, then digested overnight with H. zea gut enzymes
T1 sequence: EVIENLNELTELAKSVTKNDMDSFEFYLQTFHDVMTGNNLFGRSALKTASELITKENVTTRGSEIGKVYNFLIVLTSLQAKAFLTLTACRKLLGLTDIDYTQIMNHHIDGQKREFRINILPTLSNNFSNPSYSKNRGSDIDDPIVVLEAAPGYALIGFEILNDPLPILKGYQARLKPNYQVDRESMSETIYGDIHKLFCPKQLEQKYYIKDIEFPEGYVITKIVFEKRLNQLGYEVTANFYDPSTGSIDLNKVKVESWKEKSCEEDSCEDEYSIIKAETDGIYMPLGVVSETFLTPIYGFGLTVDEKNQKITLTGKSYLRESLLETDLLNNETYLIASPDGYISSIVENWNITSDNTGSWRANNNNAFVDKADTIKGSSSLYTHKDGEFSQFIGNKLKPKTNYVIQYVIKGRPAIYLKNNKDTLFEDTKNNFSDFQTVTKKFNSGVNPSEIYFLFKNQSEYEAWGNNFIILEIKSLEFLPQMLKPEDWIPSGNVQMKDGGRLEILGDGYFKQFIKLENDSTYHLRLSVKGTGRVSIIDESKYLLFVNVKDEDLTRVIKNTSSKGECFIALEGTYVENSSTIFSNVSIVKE
In words: SEC; purified Vip3 protein digested overnight with H. zea gut fluid (50 mM MOPS pH 10, 30 °C), stopped with protease inhibitors, then analytical SEC on TSKgel SuperSW3000 in 50 mM sodium phosphate pH 7.0 with 250 mM NaCl; size from retention time. Particulars: both partners purified.

Data set [7] concerns the molecule itself. Described as above.
Data set [8] deals with the molecule itself. Briefly: SEC; analytical SEC, TSKgel SuperSW3000, 50 mM sodium phosphate pH 7.0 with 250 mM NaCl, 75 µl/min, 3 µl at 150 µg/ml, fluorescence detection; size from retention time against molecular weight standards; proteins not digested.

What is called stoichiometry N is a count of units in the complex or per binding partner. “Vip3Ab1 after overnight processing with H. zea midgut enzymes (~20 kDa and ~65 kDa products together) (complex)”: the stoichiometry N in data set [1] is 4.

Turning to “C-terminal ~65 kDa domain of Vip3Ab1, expressed from Leu222 (domain or fragment)”, the stoichiometry N in data set [2] was 2. With Vip3Ab1 (natural protein), the stoichiometry N in data set [3] stood at 4. With “Vip3_BA chimera (N-terminal domain of Vip3Bc1 and C-terminal domain of Vip3Ab1) (from UniProt A0A290WPI2 2-223)”, in data set [4], the percent tetrameric stood at 50% and the stoichiometry N worked out at 4. In data set [5], “Vip3_AB chimera (N-terminal domain of Vip3Ab1 and C-terminal domain of Vip3Bc1) (from UniProt A0A290WPI2 224-803)” had a stoichiometry N of 4.

B1: ~20 kDa N-terminal product of Vip3Bc1 after gut enzyme processing (domain or fragment)
chain: ALPSFIDYFNGIYGFATGIKDIMGMIFKTDTGGSNLTLDEILKNQNLLNDISGKLDGINGDLGDLIAQGNLNSELAKELLKISNEQNQMLNHVNAQLNAINSTLNIYLPKITSMLNEVMKQNHVLSLQIEFLSKQLQEISDKLDIINLNVLINSTLTEITPAYQRIKYVNEKFDELTSTVEKNPKSYQDNVTK
notes: Vip3Bc1, GenBank MF543028, product between the cleavage at 21Ala and the cleavage 210NVTK/EVIE (processed at 214Glu); source: Vip3Bc1 from Pseudomonas fluorescens, purified, then digested overnight with H. zea gut enzymes
With B1, the binding result in data set [6] is “binds”.

B2: Vip3Bc1 after overnight processing with H. zea midgut enzymes (~20 kDa and ~65 kDa products together) (complex)
chain 1: B1 chain
chain 2: T1 sequence
notes: Vip3Bc1 ~20 kDa product, as m9; Vip3Bc1 ~65 kDa product, as m10; Vip3Bc1 was processed much more slowly than Vip3Ab1; also called processed Vip3Bc1; source: Vip3Bc1 from Pseudomonas fluorescens, purified, then digested overnight with H. zea gut enzymes; copies: 4 + 4
For B2, the “stoichiometry N” value in data set [7] amounted to 4.

B3: C-terminal ~65 kDa domain of Vip3Bc1, expressed from Leu222 (domain or fragment)
chain: LTELAKSVTKNDMDSFEFYLQTFHDVMTGNNLFGRSALKTASELITKENVTTRGSEIGKVYNFLIVLTSLQAKAFLTLTACRKLLGLTDIDYTQIMNHHIDGQKREFRINILPTLSNNFSNPSYSKNRGSDIDDPIVVLEAAPGYALIGFEILNDPLPILKGYQARLKPNYQVDRESMSETIYGDIHKLFCPKQLEQKYYIKDIEFPEGYVITKIVFEKRLNQLGYEVTANFYDPSTGSIDLNKVKVESWKEKSCEEDSCEDEYSIIKAETDGIYMPLGVVSETFLTPIYGFGLTVDEKNQKITLTGKSYLRESLLETDLLNNETYLIASPDGYISSIVENWNITSDNTGSWRANNNNAFVDKADTIKGSSSLYTHKDGEFSQFIGNKLKPKTNYVIQYVIKGRPAIYLKNNKDTLFEDTKNNFSDFQTVTKKFNSGVNPSEIYFLFKNQSEYEAWGNNFIILEIKSLEFLPQMLKPEDWIPSGNVQMKDGGRLEILGDGYFKQFIKLENDSTYHLRLSVKGTGRVSIIDESKYLLFVNVKDEDLTRVIKNTSSKGECFIALEGTYVENSSTIFSNVSIVKE
notes: Vip3Bc1, GenBank MF543028, beginning at Leu222; also called C-terminus of Vip3Bc1; C-terminal region of Vip3Bc1; source: Pseudomonas fluorescens, purified
For B3, the “stoichiometry N” value in data set [8] was determined as 2.

B4: Vip3Bc1 (natural protein)
chain: VQKWMQRMIIVDNNKLNVRALPSFIDYFNGIYGFATGIKDIMGMIFKTDTGGSNLTLDEILKNQNLLNDISGKLDGINGDLGDLIAQGNLNSELAKELLKISNEQNQMLNHVNAQLNAINSTLNIYLPKITSMLNEVMKQNHVLSLQIEFLSKQLQEISDKLDIINLNVLINSTLTEITPAYQRIKYVNEKFDELTSTVEKNPKSYQDNVTKEVIENLNELTELAKSVTKNDMDSFEFYLQTFHDVMTGNNLFGRSALKTASELITKENVTTRGSEIGKVYNFLIVLTSLQAKAFLTLTACRKLLGLTDIDYTQIMNHHIDGQKREFRINILPTLSNNFSNPSYSKNRGSDIDDPIVVLEAAPGYALIGFEILNDPLPILKGYQARLKPNYQVDRESMSETIYGDIHKLFCPKQLEQKYYIKDIEFPEGYVITKIVFEKRLNQLGYEVTANFYDPSTGSIDLNKVKVESWKEKSCEEDSCEDEYSIIKAETDGIYMPLGVVSETFLTPIYGFGLTVDEKNQKITLTGKSYLRESLLETDLLNNETYLIASPDGYISSIVENWNITSDNTGSWRANNNNAFVDKADTIKGSSSLYTHKDGEFSQFIGNKLKPKTNYVIQYVIKGRPAIYLKNNKDTLFEDTKNNFSDFQTVTKKFNSGVNPSEIYFLFKNQSEYEAWGNNFIILEIKSLEFLPQMLKPEDWIPSGNVQMKDGGRLEILGDGYFKQFIKLENDSTYHLRLSVKGTGRVSIIDESKYLLFVNVKDEDLTRVIKNTSSKGECFIALEGTYVENSSTIFSNVSIVKE
notes: Vip3Bc1, vegetative insecticidal protein of Bacillus thuringiensis, GenBank MF543028; expressed with only the first methionine removed (N-terminus VQKWM at 2); Gene was synthesized, codon biased for maize; source: Pseudomonas fluorescens, purified (ammonium sulfate precipitation, anion exchange)
As for B4, the “stoichiometry N” value in data set [8] came out at 4.
